The text below walks through data of US20180112002A1 (University of California, published 2018).

B1: CD19 (receptor, human, UniProt P15391 20-556, looked up)
chain: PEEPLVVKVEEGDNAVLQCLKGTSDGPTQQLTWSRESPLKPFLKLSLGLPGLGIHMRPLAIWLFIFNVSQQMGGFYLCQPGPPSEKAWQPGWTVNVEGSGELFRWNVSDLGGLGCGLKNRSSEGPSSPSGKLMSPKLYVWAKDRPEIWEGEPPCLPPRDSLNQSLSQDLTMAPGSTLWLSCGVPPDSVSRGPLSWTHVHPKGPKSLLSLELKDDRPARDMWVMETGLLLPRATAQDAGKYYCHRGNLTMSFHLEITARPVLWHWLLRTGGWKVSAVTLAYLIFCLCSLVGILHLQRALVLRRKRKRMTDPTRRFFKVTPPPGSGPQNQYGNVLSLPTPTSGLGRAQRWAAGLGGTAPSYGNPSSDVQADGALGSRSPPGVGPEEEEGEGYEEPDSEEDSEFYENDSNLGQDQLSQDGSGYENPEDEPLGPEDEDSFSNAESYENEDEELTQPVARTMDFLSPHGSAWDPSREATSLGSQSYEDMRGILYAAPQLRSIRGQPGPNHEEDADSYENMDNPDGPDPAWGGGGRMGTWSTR
notes: whole, on cells; Negative control for co-localization
B2: CD5 (receptor, human, UniProt P06127 25-495, looked up)
chain: RLSWYDPDFQARLTRSNSKCQGQLEVYLKDGWHMVCSQSWGRSSKQWEDPSQASKVCQRLNCGVPLSLGPFLVTYTPQSSIICYGQLGSFSNCSHSRNDMCHSLGLTCLEPQKTTPPTTRPPPTTTPEPTAPPRLQLVAQSGGQHCAGVVEFYSGSLGGTISYEAQDKTQDLENFLCNNLQCGSFLKHLPETEAGRAQDPGEPREHQPLPIQWKIQNSSCTSLEHCFRKIKPQKSGRVLALLCSGFQPKVQSRLVGGSSICEGTVEVRQGAQWAALCDSSSARSSLRWEEVCREQQCGSVNSYRVLDAGDPTSRGLFCPHQKLSQCHELWERNSYCKKVFVTCQDPNPAGLAAGTVASIILALVLLVVLLVVCGPLAYKKLVKKFRQKKQRQWIGPTGMNQNMSFHRNHTATVRSHAENPTASHVDNEYSQPPRNSHLSAYPALEGALHRSSMQPDNSSDSDYDLHGAQRL
notes: as for B1
B3: ARHGEF6 protein (Rho guanine nucleotide exchange factor 6) (other)
chain: MNPEEQIVTWLISLGVLESPKKTICDPEEFLKSSLKNGVVLCKLINRLMPGSVEKFCLDPQTEADCINNINDFLKGCATLQVEIFDPDDLYSGVNFSKVLSTLLAVNKATEDQLSERPCGRSSSLSAANTSQTNPQGAVSSTVSGLQRQSKTVEMTENGSHQLIVKARFNFKQTNEDELSVCKGDIIYVTRVEEGGWWEGTLNGRTGWFPSNYVREIKSSERPLSPKAVKGFETAPLTKNYYTVVLQNILDTEKEYAKELQSLLVTYLRPLQSNNNLSTVEVTSLLGNFEEVCTFQQTLCQALEECSKFPENQHKVGGCLLSLMPHFKSMYLAYCANHPSAVNVLTQHSDELEQFMENQGASSPGILILTTNLSKPFMRLEKYVTLLQELERHMEDTHPDHQDILKAIVAFKTLMGQCQDLRKRKQLELQILSEPIQAWEGEDIKNLGNVIFMSQVMVQYGACEEKEERYLMLFSNVLIMLSASPRMSGFIYQGKIPIAGTVVTRLDEIEGNDCTFEITGNTVERIVVHCNNNQDFQEWLEQLNRLIRGPASCSSLSKTSSSSCSAHSSFSSTGQPRGPLEPPQIIKPWSLSCLRPAPPLRPSAALGYKERMSYILKESSKSPKTMKKFLHKRKTERKPSEEEYVIRKSTAALEEDAQILKVIEAYCTSANFQQGHGSSTRKDSIPQVLLPEEEKLIIEETRSNGQTIMEEKSLVDTVYALKDEVRELKQENKRMKQCLEEELKSRRDLEKLVRRLLKQTDECIRGESSSKTSILP
notes: Endogenous protein of CLL and MEC1 cells

Test [1] addresses T1, ROR1 protein (tyrosine-protein kinase transmembrane receptor ROR1) (human, UniProt Q01973 30-937).
T1 construct: Endogenous ROR1 of CLL patients' cells, and full-length ROR1 expressed from a vector in the human CLL line MEC1 (MEC1-ROR1); also called NTRKR1; full-length ROR1
Description: fluorescence confocal microscopy, CLL cells. How it is done:
(§1) FIG. 9. Negative control for co-localization analysis by confocal microscopy. CLL cells were stained with anti-CD5-Alexa-647 and anti-CD19-Alexa-488; anti-ROR1-Alexa-647 and anti-CD19-Alexa-488; or anti-CD5-Alexa-647 and anti-ROR2-Alexa-488 for evaluation by confocal microscopy (Scale bar: 2 μm). There is no co-localization between CD5 and CD19, ROR1 and CD19, or CD5 and ROR2.
(§2) However, it was difficult to detect co-localization of ROR1 with ROR2 in cultured CLL cells unless they were treated with exogenous Wnt5a (FIG. 3b).

For test [2], the target named is T2, ROR2 protein (tyrosine-protein kinase transmembrane receptor ROR2) (human, UniProt Q01974 34-943).
T2 construct: Endogenous ROR2 of CLL cells, normal B cells and MEC1 cells; also called NTRKR2
T2 sequence (Q01974 34-943 limits assumed): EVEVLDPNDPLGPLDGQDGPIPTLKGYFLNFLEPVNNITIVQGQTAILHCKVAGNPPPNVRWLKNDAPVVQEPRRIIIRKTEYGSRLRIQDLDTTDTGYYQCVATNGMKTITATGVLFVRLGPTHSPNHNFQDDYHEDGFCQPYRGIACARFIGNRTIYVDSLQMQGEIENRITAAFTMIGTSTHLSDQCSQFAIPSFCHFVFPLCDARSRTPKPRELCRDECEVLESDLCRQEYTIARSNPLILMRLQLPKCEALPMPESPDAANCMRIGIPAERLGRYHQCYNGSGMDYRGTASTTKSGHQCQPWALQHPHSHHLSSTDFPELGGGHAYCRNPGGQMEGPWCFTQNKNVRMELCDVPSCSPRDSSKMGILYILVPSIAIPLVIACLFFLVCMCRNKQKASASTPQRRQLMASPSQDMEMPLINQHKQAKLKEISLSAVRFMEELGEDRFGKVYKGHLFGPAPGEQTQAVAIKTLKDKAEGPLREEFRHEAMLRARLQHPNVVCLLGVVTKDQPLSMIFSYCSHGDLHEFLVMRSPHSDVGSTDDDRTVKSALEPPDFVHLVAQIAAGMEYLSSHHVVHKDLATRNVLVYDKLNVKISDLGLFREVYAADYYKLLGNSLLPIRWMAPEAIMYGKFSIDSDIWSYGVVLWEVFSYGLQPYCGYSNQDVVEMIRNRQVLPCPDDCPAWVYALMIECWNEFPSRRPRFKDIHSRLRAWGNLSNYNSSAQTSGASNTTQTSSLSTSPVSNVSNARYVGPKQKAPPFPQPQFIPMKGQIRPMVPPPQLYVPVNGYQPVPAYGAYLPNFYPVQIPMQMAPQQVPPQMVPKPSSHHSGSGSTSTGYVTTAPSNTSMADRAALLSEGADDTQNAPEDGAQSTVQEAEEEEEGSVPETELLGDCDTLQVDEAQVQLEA
Nature of the test: fluorescence confocal microscopy, CLL cells. How it is done:
as §1, §2

The target in the test “CD19” is B1. Nature of the test: fluorescence confocal microscopy, CLL cells. How it is done: as §1, §2
Test [3] has as its target T2, ROR2 protein (tyrosine-protein kinase …). Nature of the test: fluorescence confocal microscopy, Wnt5a-treated CLL cells.

T1 sequence (Q01973 30-937 limits assumed): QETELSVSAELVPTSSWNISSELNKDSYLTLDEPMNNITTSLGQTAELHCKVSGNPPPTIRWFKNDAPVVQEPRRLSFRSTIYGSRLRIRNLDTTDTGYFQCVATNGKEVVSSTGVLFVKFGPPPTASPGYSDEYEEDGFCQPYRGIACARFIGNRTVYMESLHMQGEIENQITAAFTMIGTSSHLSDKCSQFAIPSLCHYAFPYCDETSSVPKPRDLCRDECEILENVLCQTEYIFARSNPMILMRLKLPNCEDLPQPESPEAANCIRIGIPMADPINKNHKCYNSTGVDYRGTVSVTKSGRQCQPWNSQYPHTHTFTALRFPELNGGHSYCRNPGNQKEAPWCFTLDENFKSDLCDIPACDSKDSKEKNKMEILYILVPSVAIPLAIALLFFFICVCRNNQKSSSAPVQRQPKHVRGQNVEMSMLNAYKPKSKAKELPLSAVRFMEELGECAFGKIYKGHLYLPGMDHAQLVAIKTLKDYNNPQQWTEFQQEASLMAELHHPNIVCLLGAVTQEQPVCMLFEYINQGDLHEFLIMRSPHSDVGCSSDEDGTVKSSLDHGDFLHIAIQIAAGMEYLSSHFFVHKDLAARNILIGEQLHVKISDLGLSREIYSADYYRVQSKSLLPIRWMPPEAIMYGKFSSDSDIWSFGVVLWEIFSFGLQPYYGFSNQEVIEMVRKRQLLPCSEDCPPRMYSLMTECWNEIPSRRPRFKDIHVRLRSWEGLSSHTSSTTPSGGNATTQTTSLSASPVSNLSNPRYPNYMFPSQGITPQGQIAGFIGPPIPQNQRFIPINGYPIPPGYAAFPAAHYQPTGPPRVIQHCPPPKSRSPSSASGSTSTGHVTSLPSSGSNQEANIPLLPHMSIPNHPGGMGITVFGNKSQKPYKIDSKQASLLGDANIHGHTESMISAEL

Turning to B1, the binding result in test [1] was “no binding”.
B2: the binding result (in test [2]; in the test with CD19) was “no binding” in each case.
For the molecule B3, the binding result in test [3] is given as “binds”.
